Where a chain is given by its changes, count along the chain named. Numbers in names are those of the source.
B1: Q11W (protein)
chain: MPQEARTPQQWVTADEVGDWYDKFGEVYHLTLGESVHCGLWFPPDAPVPQDMELVTMSSQAQDRFTDYLIETLDPKAGQHLLDIGCGTGRPALKAARQRGIAVTGVAVSKEQIAAANRLAAGHGLTERLTFEVADAMRLPYEDESFDCAWAIESLDHMDRAKALGEAWRVLKPGGDLLVAEEVVTEELTEPETALFETLFALNVPPRLGEFFDIVSGAGFHTLSLKDLSADLAMTMNVFALGVYSRRAEFTERFGAEFVDGLLAGLGSAQETVIRKTRFFMATLRKPAV
modifications: Modified from pMT1
B2: H123Q (protein)
chain: B1 chain with W11Q, H123Q
modifications: Modified from pMT1
B3: E190P, G122S (protein)
chain: B1 chain with W11Q, G122S, E190P
B4: V12K (protein)
chain: B1 chain with W11Q, V12K
modifications: Modified from pMT1
B5: H123S (protein)
chain: B1 chain with W11Q, H123S
modifications: Modified from pMT1
B6: P191L (protein)
chain: B1 chain with W11Q, P191L
modifications: Modified from pMT1
B7: V12A (protein)
chain: B1 chain with W11Q, V12A
modifications: Modified from pMT1
B8: T126S (protein)
chain: B1 chain with W11Q, T126S
modifications: Modified from pMT1
B9: P191I (protein)
chain: B1 chain with W11Q, P191I
modifications: Modified from pMT1
B10: V12G (protein)
chain: B1 chain with W11Q, V12G
modifications: Modified from pMT1
B11: T126E (protein)
chain: B1 chain with W11Q, T126E
modifications: Modified from pMT1
B12: P191Y (protein)
chain: B1 chain with W11Q, P191Y
modifications: Modified from pMT1
B13: T13L (protein)
chain: B1 chain with W11Q, T13L
modifications: Modified from pMT1
B14: E127G (protein)
chain: B1 chain with W11Q, E127G
modifications: Modified from pMT1
B15: P191K (protein)
chain: B1 chain with W11Q, P191K
modifications: Modified from pMT1
B16: T13M (protein)
chain: B1 chain with W11Q, T13M
modifications: Modified from pMT1
B17: L129C (protein)
chain: B1 chain with W11Q, L129C
modifications: Modified from pMT1
B18: T13Q (protein)
chain: B1 chain with W11Q, T13Q
modifications: Modified from pMT1
B19: L129K (protein)
chain: B1 chain with W11Q, L129K
modifications: Modified from pMT1
B20: E192S (protein)
chain: B1 chain with W11Q, E192S
modifications: Modified from pMT1
B21: T13A (protein)
chain: B1 chain with W11Q, T13A
modifications: Modified from pMT1
B22: L129V (protein)
chain: B1 chain with W11Q, L129V
modifications: Modified from pMT1
B23: L195I (protein)
chain: B1 chain with W11Q, L195I
modifications: Modified from pMT1
B24: T13G (protein)
chain: B1 chain with W11Q, T13G
modifications: Modified from pMT1
B25: M137G (protein)
chain: B1 chain with W11Q, M137G
modifications: Modified from pMT1
B26: A14M (protein)
chain: B1 chain with W11Q, A14M
modifications: Modified from pMT1
B27: M137A (protein)
chain: B1 chain with W11Q, M137A
modifications: Modified from pMT1
B28: L195V (protein)
chain: B1 chain with W11Q, L195V
modifications: Modified from pMT1
B29: A14R (protein)
chain: B1 chain with W11Q, A14R
modifications: Modified from pMT1
B30: M137D (protein)
chain: B1 chain with W11Q, M137D
modifications: Modified from pMT1
B31: S268K (protein)
chain: B1 chain with W11Q, S268K
modifications: Modified from pMT1
B32: Q60R (protein)
chain: B1 chain with W11H
modifications: Modified from pMT1

Assay: In-vivo cis-α-irone production screening of pMT7 and pMT12 mutants
Assay type: cell-based, Escherichia coli
Conditions: mutations made to pMT12; normalized to pMT12 (=1)
Text: Q60 was identified as another possible mutation site.
FIGS. 24a and 24b show the in-vivo and in-vitro cis-α-irone production of other possible single mutations to pMT12. The in-vitro results in FIG. 24b validate the mutations and in-vivo results in FIG. 24a. The mutations in FIG. 24 include Q11H (SEQ ID No. 23), V12R (SEQ ID No. 24), A95C (SEQ ID No. 25), H123Q (SEQ ID No. 26), E127T (SEQ ID No. 27), M137T (SEQ ID No. 28), D176V (SEQ ID No. 29), D176Y (SEQ ID No. 30). P191S (SEQ ID No. 31), P191V (SEQ ID No. 32), F212L (SEQ ID No. 33), S268H (SEQ ID No. 34), AND T272A (SEQ ID No. 35). The screening results in FIGS. 24 and 25 are semi-quantitative to identify beneficial mutants that give greater than one-fold change of irone production as compared to pMT12.
FIGS. 25a to 25c (and Table 4) show the in-vivo testing results of other possible mutations that may be made to pMT12 to improve its in-vivo production of cis-α-irone. FIGS. 25a to 25c each include two dotted lines to account for a 10% error bar to show the normalized fold change of 0.9 and 1.1.
The four plasmids were transformed into E. coli BL21 (DE3), ΔaroA, ΔaroB, ΔaroC, ΔserC or E. coli BL21 (DE3), ΔaroA, ΔaroB, ΔaroC, ΔserC, ΔmetJ strains and plated on Agar plate containing LB media (10 g, tryptone. 5 g, yeast extract. 10 g, NaCl) supplemented with appropriate antibiotics (100 mg/L ampicillin, 34 mg/L chloramphenicol, 50 mg/L kanamycin, and 100 mg/L spectinomycin). One colony was picked and inoculate into LB media with antibiotics. 1% of overnight culture was inoculated into 1 ml fresh auto-inducing chemically defined media. The chemical media contains carbon source solution: 0.5 g/L glucose, 10 g/L glycerol; inducer: 30 mM lactose and base media: 2 g/L ammonium sulfate, 4.2 g/L KH2PO4, 11.24 g/L K2HPO4, 1.7 g/L citric acid, 0.5 g/L MgSO4, and 10 mL/L trace element solution. The trace element solution (100×) contained 0.25 g/L CoCl2·6H2O, 1.5 g/L MnSO4·4H2O, 0.15 g/L CuSO4·2H2O, 0.3 g/L H3BO3, 0.25 g/L Na2MoO4·2H2O, 0.8 g/L Zn(CH3COO)2, 5 g/L Fe(III) citrate, and 0.84 g/L ethylenediaminetetra-acetic acid (EDTA) at pH 8.0. The culture was grown at 28° C. for 3 days and the products were extracted with 1 ml hexane for GCMS analysis. An example of a fed-batch process for α-ionone Is briefly described, overnight culture was inoculated into 2 L chemical media comprising the base media and 5 g/L glucose, at 37° C. and 30% DO. pH was controlled at 7 with base solution (14% ammonia and 0.5 M NaOH). Feed media (500 g/L glucose and 5 g/L MgSO4) was added into bioreactor once OD600 reached 5, at a rate of 7.15-25.75 g/h glucose for about 4-5 h until OD600 reached ˜30-40. Subsequently, 0.1 mM IPTG was added to induce the production, and feeding rate was kept at a constant rate of 10 g/h glucose, and the temperature was reduced to 30° C. DO was adjusted to 2% or 10%. Feeding was stopped at 113 h when 2 L feeding media was finished, but the culture was further incubated for 24 h. To capture the evaporated products, the exhaust was connected to 25 ml sunflower oil.

| Molecule | Fold change in in-vivo cis-α-irone production |
| --- | --- |
| B1 | 0.90 |
| B2 | 0.87 |
| B3 | 1.02 |
| B4 | 1.00 |
| B5 | 0.84 |
| B6 | 1.12 |
| B7 | 0.97 |
| B8 | 0.96 |
| B9 | 1.31 |
| B10 | 0.97 |
| B11 | 0.88 |
| B12 | 1.29 |
| B13 | 0.97 |
| B14 | 0.98 |
| B15 | 1.26 |
| B16 | 0.97 |

| Molecule | Fold change in in-vivo cis-α-irone production |
| --- | --- |
| B17 | 1.08 |
| B18 | 0.93 |
| B19 | 1.00 |
| B20 | 0.97 |
| B21 | 0.91 |
| B22 | 1.03 |
| B23 | 1.08 |
| B24 | 0.91 |
| B25 | 1.15 |
| B26 | 0.94 |
| B27 | 1.15 |
| B28 | 1.02 |
| B29 | 0.93 |
| B30 | 1.13 |
| B31 | 1.35 |

Same assay, conditions: single mutations vs parent (pMT7 or pMT12)

| Molecule | in-vivo production of cis-α-irone (in words) |
| --- | --- |
| B32 | increased cis-α-irone production in-vivo |
